This is an account of results in patent publication US20170173114A1, “METHODS AND COMPOSITIONS FOR INDUCTION OF UCP1 EXPRESSION” (Joslin Diabetes Center, Inc., priority 2014, published 2017).

“Also recorded” adds a separate entry of the source.

For assay [1], the system named is WT-1 brown preadipocytes. Briefly: Seahorse Bioanalyzer cellular respiration in WT-1 brown preadipocytes. The class given is cell-based, murine. The text has this:
The Seahorse XF24 (Seahorse Bioscience, http://www.seahorsebio.com/) was utilized for respirometry to measure oxygen consumption rates (OCR; indicating oxidative phosphorylation) and extracellular acidification rates (ECAR; indicating extracellular pH) in mature brown adipocytes. The cell plates and assay cartridges for the Seahorse XF24 have four ports allowing for drug delivery to individual wells during measurement of the metabolic parameters. For a typical bioenergetic profile, cells are first treated with oligomycin to block ATP synthase, FCCP as an uncoupler and Rotenone to block Complex 1 of the ETC (all from Sigma). Example 2 provides additional details regarding the general method. Data provided in the Figures (e.g., FIG. 27) based on the Seahorse Bioanalyzer includes a bottom horizontal line which represents the baseline of the mechanics of the machine and is not related to the experiment.
A profile of cellular respiration was developed by utilizing well-characterized mitochondrial toxins, as described in FIG. 5B. First, basal respiration was measured, followed by injection of oligomycin (an inhibitor of ATP synthase which allows measurement of ATP turnover). Then, the uncoupler FCCP (carbonilcyanide p-triflouromethoxyphenylhydrazone) was injected to measure respiratory capacity, followed by the complex 1 inhibitor rotenone (which prevents electron transfer activity and leaves only non-mitochondrial activity to be measured).
Similar results were observed when WT-1 brown preadipocytes were treated with 200 ng/mL of FGF6 for 24 hrs using the Seahorse Bioanalyzer.
The role of PGs in regulating mitochondrial function and cellular glucose uptake was also assessed. WT-1 brown preadipocytes were treated with PGE2, PGI2 and FGF6 in growth media (DMEM+10% FBS) for two days. Similar to treatment with FGF6, treatment with PGE2 and PGI2 enhanced oxygen consumption and glucose uptake, as described in FIGS. 27A and 27B, respectively.

Assay [2] deals with UCP1. Briefly: UCP1 expression in 3T3-F442A white preadipocytes overexpressing FGF6. Conditions: constitutive overexpression of FGF6 in 3T3-F442A. The format is cell-based. Here is the method:
FGF6 lentiviral vector was generated by cloning mouse FGF6 cDNA into a lentiviral vector. Lentiviruses were obtained by transfecting 293T cells with lentiviral vectors. Viral supernatant was filtered through 0.45 um filter before applying to cells. Transduction was accomplished by incubating cells with virus supernatant. Stable cells were established by drug selection. The lentiviral vector contains a drug resistant gene for selection.
To assess FGF6's role in the regulation of mitochondrial activity, FGF6 was stably expressed in WT-1 brown preadipocytes and 3T3-F442A white preadipocytes. Stable cells were generated by viral infection followed by drug selection.
As mentioned above, 3T3-F442A white preadipocytes were also used to determine FGF6's role in mitochondrial activity regulation.

The subject of assay [3] is UCP1. Description: UCP1 mRNA expression in SVF cells from subcutaneous white adipose tissue (SQ-SVF). The class given is cell-based, C57BL/6 mice. Conditions: growth media, 3 days; vs control. Here is the method: Eight 6-week old C57BL/6 male mice were sacrificed. Interscapular BAT and axillary subcutaneous WAT were removed, minced and digested with 1 mg/ml collagenase for 45 minutes at 37° C. in DMEM/F12 media, containing 1% BSA and antibiotics. Digested tissues were filtered through sterile 150 μm nylon mesh and centrifuged at 250×g for 5 minutes. The floating fractions consisting of adipocytes were discarded and the pellets representing the SVF were then resuspended in erythrocyte lysis buffer (154 mM NH4Cl, 10 mM KHCO3, 0.1 mM EDTA) for 10 minutes to remove red blood cells. The cells were further centrifuged at 500×g for 5 minutes, plated at 8×10^5 cells/well of a 24-well plate and grown at 37° C. in DMEM/F12 supplemented with 10% FBS at 37° C.
To determine if FGF6 treatment of primary adipose progenitors could also increase UCP1 expression as observed in Example 1, stromo-vascular fraction (SVF) cells, which comprise adipocyte progenitors, were isolated from interscapular brown adipose tissue (BAT-SVF) and subcutaneous white adipose tissue (SQ-SVF). SVF cells were subsequently treated with FGF6 or FGF21 in growth media (DMEM+10% FBS) for 3 days, followed by determination of UCP1 expression. As described in FIGS. 9A and 9B, FGF21 treatment had little effect on UCP1 mRNA expression in either type of SVF cells, as compared to the control. […]

The subject of assay [4] is UCP1. Briefly: UCP1 mRNA expression in C2C12 myogenic progenitors. The class given is cell-based. As to conditions: three days.
Assay [5] has as its system WT-1 brown preadipocytes. Description: 2-deoxy-[3H]glucose uptake in WT-1 brown preadipocytes. The class given is cell-based, murine. As to conditions: FGF6 overexpressing vs control and EGF. Here is the method: The following glucose uptake assay was used to determine whether FGF6 could impact cellular glucose uptake. Specifically, glucose uptake was monitored in WT-1 brown preadipocytes and 3T3-F442A white preadipocytes in the presence or absence of FGF6. After serum starvation in DMEM/H medium containing 1% of BSA for 2-3 h, cells were washed with HEPES buffer and then incubated with or without 100 nM insulin for 30 min in DMEM/H medium containing 1% of BSA. Glucose transport was determined by the addition of 2-deoxy-[3H]glucose (0.1 mM, 0.5 μCi/mL; PerkinElmer Life and Analytical Science, Waltham, Mass.). After 5 minutes of incubation, the reaction was stopped by ice-cold PBS and cells were washed twice with ice-cold PBS. Cells were then lysed in 0.1% SDS, and glucose uptake was assessed in 4 mL of scintillant using Beckman LS6500 scintillation counter (Beckman Coulter, Indianapolis Ind.). Nonspecific 2-deoxy-[3H]glucose uptake was measured in the presence of cytochalasin B (20 μM) and was subtracted from the total uptake to get specific glucose uptake. Results were expressed as the mean±s.e.m. of the indicated number of experiments. The protein content was determined by the Bradford method.
The role of PGs in regulating mitochondrial function and cellular glucose uptake was also assessed. […]

In assay [6] the test system is UCP1. Briefly: Marker mRNA expression and culture media acidification in mature brown adipocytes. As to conditions: seven days. The format is cell-based, murine. Here is the method: The effect of FGF6 on murine mature brown adipocytes was also examined. Mature brown adipocytes were treated with FGF6 in growth media (DMEM+10% FBS), a vehicle control (buffer) (“buffer” referred to in FIG. 22), or BMP7 for seven days. Following the treatment, cells were examined for the color of the culture media in combination with oil Red O staining, expression of adipogenic markers, and expression of brown fat markers.
mRNA expression of UCP1, PPARγ, PTGS2, NDST3 and SIRT1 was measured in the mature adipocytes exposed to either the control, BMP7, or FGF6.

B1: FGF6: fibroblast growth factor 6; recombinant human FGF from R&D Systems, or mouse FGF6 cDNA overexpressed by lentiviral vector (protein)
chain: KRQRRLYCNVGIGFHLQVLPDGRISGTHEENPYSLLEISTVERGVVSLFGVRSALFVAMNSKGRLYATPSFQEECKFRETLLPNNYNAYESDLYQGTYIALSKYGRVKRGSKVSPIMTVTHFLPRI
For the molecule B1, the “cellular respiration (basal respiration, ATP turnover, proton leak, respiratory capacity)” value was “increase in all tested aspects of cellular respiration” in the assay with WT-1 brown preadipocytes [1] (FGF6 overexpressing WT-1 vs control cells) and “coordinated increase in all aspects of cellular respiration” in the assay on WT-1 brown preadipocytes [1] (WT-1 treated with 200 ng/mL for 24 hrs vs control cells). In addition, in the assay with WT-1 brown preadipocytes [1] (WT-1 treated with 200 ng/mL for 24 hrs), the uncoupled respiration result was “elevation in uncoupled respiration”. In addition, in the assay on UCP1 [2], the UCP1 expression result was “resulted in UCP1 expression; also recorded: marked increases”. In addition, the “increase in UCP1 mRNA expression in SVF from subcutaneous WAT” value in the assay with UCP1 [3] is recorded as around 200 fold. Also, in the assay on UCP1 [4], the “UCP1 mRNA expression in C2C12 myogenic progenitors” value is “neither FGF6 nor FGF21 induced UCP1 mRNA expression; also recorded: no induction of UCP1”. The “glucose uptake level in WT-1 (brown) preadipocytes” value in the assay with WT-1 brown preadipocytes [5] was “increased”. Besides, the “acidification of cell culture media, mature brown adipocytes” value with UCP1 [6] is given as “no acidification of cell culture media”. In the assay with UCP1 [6] (vs buffer or BMP7), the “UCP1 mRNA expression in mature adipocytes” value is “does not induce”.
